The values below come from paper PMC5343618.

This experiment has as its target T1, alkaline phosphatase D (PhoD) with a C-terminal 6-His tag (PhoD-H) (B. subtilis 168), P42251.
T1 chain: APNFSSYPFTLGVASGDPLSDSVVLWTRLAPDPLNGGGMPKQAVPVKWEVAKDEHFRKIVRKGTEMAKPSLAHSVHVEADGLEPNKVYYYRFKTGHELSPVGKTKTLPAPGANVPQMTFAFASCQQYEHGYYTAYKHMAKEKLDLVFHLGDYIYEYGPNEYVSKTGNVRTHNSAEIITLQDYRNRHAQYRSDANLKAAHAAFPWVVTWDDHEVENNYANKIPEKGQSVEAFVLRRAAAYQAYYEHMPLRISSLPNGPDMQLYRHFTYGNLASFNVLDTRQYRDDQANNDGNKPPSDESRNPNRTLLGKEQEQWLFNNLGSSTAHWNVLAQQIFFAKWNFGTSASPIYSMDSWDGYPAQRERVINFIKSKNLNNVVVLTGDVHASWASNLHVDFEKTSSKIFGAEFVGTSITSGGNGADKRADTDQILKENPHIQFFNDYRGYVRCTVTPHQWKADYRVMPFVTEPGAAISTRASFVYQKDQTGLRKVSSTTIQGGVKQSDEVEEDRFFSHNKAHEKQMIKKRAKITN
Briefly: cross-linking; in vivo cross-linking of B. subtilis cells with 0.5 mM DSS in PBS pH 8.3, 20 min at 37 °C; cells recovered 1 h in fresh medium; 10% SDS-PAGE with β-mercaptoethanol and anti-His immunoblot of cell and supernatant fractions. The note with it: remark: other sources report otherwise. In general terms: Immunoblotting shows a protein as a band on a membrane.

B1: alkaline phosphatase D (PhoD) with a C-terminal 6-His tag (PhoD-H), P42251 57-583 (enzyme)
chain: T1 chain
By stoichiometry N is commonly meant the number of molecules, sites or subunits per partner or assembly. In the case of B1, the stoichiometry N was found to be 2.
